Results on 1 molecule are retold here after patent US5739291A, “Glutamate receptor antibodies” (The Salk Institute For Biological Studies, priority 1995, dated 1998).

The target in the assay is T1, homomeric GluR6 receptor (Rattus norvegicus, UniProt P42260, I567V/Q621R/Y571C).
T1 construct: A 4559 base pair cDNA encoding a protein of 884 amino acid residues was engineered from RC11 and RC27; expressed in transfected cells; host or cells: Xenopus oocytes injected with in vitro transcribed GluR6 RNA
The assay is described as follows: Homomeric GluR6 ion channel in Xenopus oocytes injected with in vitro transcribed RNA. Type of assay: cell-based.

T1 sequence (P42260 with tags, fused parts or gaps I567V/Y571C/Q621R): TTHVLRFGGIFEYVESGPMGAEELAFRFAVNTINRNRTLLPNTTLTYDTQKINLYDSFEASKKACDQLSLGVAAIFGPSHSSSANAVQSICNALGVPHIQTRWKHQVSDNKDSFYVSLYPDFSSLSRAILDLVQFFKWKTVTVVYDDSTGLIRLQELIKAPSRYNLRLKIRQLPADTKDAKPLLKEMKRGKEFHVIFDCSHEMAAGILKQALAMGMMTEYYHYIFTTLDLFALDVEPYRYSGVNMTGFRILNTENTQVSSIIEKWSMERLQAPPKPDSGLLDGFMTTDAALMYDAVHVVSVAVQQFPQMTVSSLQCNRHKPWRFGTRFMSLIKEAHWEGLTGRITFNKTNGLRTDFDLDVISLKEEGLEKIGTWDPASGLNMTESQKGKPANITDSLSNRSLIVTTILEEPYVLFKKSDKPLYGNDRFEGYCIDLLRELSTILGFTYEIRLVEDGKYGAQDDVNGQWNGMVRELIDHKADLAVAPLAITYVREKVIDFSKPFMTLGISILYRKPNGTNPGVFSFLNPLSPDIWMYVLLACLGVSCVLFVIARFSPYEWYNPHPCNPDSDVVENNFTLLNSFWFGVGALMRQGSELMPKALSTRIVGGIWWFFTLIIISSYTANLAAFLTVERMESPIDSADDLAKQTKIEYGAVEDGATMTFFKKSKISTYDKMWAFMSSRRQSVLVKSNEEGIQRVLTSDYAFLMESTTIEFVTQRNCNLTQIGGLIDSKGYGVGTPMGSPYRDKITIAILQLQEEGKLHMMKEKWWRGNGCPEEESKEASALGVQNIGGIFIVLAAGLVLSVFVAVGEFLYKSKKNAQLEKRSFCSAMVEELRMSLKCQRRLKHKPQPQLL

B1: concanavalin A (protein)
chain: STHETNALHFMFNQFSKDQKDLILQGDATTGTDGNLELTRVSSNGSPQGSSVGRALFYAPVHIWESSAVVASFEATFTFLIKSPDSHPADGIAFFISNIDSSIPSGSTGRLLGLFPDANVIRNSTTIDFNAAYNADTIVAVELDTYPNTDIGDPSYPHIGIDIKSVRSKKTAKWNMQNGKVGTAHIIYNSVDKRLSAVVSYPNADSATVSYDVDLDNVLPEWVRVGLSASTGLYKETNTILSWSFTSKLKSN
notes: concanavalin A, used to decrease receptor desensitization
On to B1, for which, where the note is “10 μM for 5 minutes”, the effect on desensitization entry is listed as “efficiently decreases desensitization”. In addition, the “increase of current elicited by kainate and glutamate compared to peak current before treatment” value (equimolar agonist concentrations) was in the range of 75 to 150 fold.
